Experimental findings from PMC1635258 are described below.

Data set [1] addresses T1, hRPA (replication protein A heterotrimer p70/p32/p14) (human, UniProt P27694;P15927;P35244 1-616;1-270;1-121). Briefly: EMSA.
The target in data set [2] is T1, hRPA (replication protein A …). Put plainly: EMSA. This is another data set of the same source. Background: Mobility shift assays separate free from complexed probe on a gel.

Where two headings read alike, the source gives them in different places.

T1 sequence (P27694 whole entry, chain 1 of 3): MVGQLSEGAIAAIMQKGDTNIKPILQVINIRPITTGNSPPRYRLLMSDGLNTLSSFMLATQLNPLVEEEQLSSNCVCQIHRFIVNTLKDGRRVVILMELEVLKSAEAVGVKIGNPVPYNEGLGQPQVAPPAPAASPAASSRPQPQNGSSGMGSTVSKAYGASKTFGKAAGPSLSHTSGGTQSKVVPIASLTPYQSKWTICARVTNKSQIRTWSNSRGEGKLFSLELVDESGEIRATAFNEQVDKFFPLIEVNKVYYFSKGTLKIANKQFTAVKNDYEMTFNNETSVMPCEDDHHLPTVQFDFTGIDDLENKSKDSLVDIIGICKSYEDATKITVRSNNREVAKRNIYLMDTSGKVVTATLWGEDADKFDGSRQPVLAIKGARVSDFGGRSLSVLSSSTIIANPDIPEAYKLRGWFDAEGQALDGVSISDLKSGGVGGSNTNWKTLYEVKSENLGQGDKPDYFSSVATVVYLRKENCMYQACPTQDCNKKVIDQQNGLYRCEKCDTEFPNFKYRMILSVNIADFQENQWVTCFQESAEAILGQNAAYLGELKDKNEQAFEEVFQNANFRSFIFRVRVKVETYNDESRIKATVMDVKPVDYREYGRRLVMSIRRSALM
T1 sequence (P15927 whole entry, chain 2 of 3): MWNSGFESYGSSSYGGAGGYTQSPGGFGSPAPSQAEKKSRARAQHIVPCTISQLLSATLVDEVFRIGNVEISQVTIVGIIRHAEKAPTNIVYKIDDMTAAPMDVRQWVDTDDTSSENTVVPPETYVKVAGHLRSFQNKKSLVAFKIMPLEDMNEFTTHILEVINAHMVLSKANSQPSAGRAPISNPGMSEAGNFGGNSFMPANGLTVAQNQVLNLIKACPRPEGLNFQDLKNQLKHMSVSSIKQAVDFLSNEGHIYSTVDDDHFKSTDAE
T1 sequence (P35244 whole entry, chain 3 of 3): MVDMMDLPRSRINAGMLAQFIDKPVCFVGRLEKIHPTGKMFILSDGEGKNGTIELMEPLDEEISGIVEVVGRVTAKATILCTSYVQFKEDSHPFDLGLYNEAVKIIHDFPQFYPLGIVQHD

Turning to GGGTTAGGGTTAGGGTTAGGG (structured_DNA) [htelo], the binding result in data set [1] is “binds”.
In the case of TTTTTTTTTTTTTTTTTTTTT (ssDNA) [T21], the binding result in data set [2] was “binds”.
